How the values were obtained:
[1] = test system: Hia5 adenine methyltransferase; details: methylation efficiency by DpnII protection; SAM; 0.1% BSA improves
[2] = test system: EcoGII adenine methyltransferase; details: methylation efficiency by DpnII protection; SAM; 0.1% BSA improves
[3] = test system: LMNB1 (Lamin B1) (Homo sapiens); details: DiMeLo-seq pA-Hia5 in situ, signal:background mA ratio (IgG control 1.6)

Substance | activity [1] | activity [2] | binding signal [3]
90-bp duplex with single GATC | 100% | 100% | 
constitutive lamina-associated domains (cLADs) |  |  | 34.3

From patent publication US20240240234
